From IntAct's records for PubMed 35512704

B1: Mothers against decapentaplegic homolog 4 (Homo sapiens), Q13485 (parent)
chain: MDNMSITNTPTSNDACLSIVHSLMCHRQGGESETFAKRAIESLVKKLKEKKDELDSLITAITTNGAHPSKCVTIQRTLDGRLQVAGRKGFPHVIYARLWRWPDLHKNELKHVKYCQYAFDLKCDSVCVNPYHYERVVSPGIDLSGLTLQSNAPSSMMVKDEYVHDFEGQPSLSTEGHSIQTIQHPPSNRASTETYSTPALLAPSESNATSTANFPNIPVASTSQPASILGGSHSEGLLQIASGPQPGQQQNGFTGQPATYHHNSTTTWTGSRTAPYTPNLPHHQNGHLQHHPPMPPHPGHYWPVHNELAFQPPISNHPAPEYWCSIAYFEMDVQVGETFKVPSSCPIVTVDGYVDPSGGDRFCLGQLSNVHRTEAIERARLHIGKGVQLECKGEGDVWVRCLSDHAVFVQSYYLDREAGRAPGDAVHKIYPSAYIKVFDLRQCHRQMQQQAATAQAAAAAQAAAVAGNIPGPGSVGGIAPAISLSAAAGIGVDDLRRLCILRMSFVKGWGPDYPRQSIKETPCWIEIHLHRALQLLDEVLHTMPIADPQPLD

Variants of: B1
Details: with smad3_human SMAD3, P84022

effect of a mutation on the interaction	Variant
disrupting interaction strength	R361C

Variants of: B1
Details: with agap2_human AGAP2, Q99490

effect of a mutation on the interaction	Variant
with no effect	R361C

Variants of: B1
Details: with ajuba_human AJUBA

effect of a mutation on the interaction	Variant
with no effect	R361C

Variants of: B1
Details: with akt1_human AKT1, P31749

effect of a mutation on the interaction	Variant
with no effect	R361C

Variants of: B1
Details: with akts1_human AKT1S1, Q96B36

effect of a mutation on the interaction	Variant
with no effect	R361C

Variants of: B1
Details: with akt3_human AKT3, Q9Y243

effect of a mutation on the interaction	Variant
with no effect	R361C

Variants of: B1
Details: with alk_human ALK

effect of a mutation on the interaction	Variant
with no effect	R361C

Variants of: B1
Details: with aph1a_human APH1A

effect of a mutation on the interaction	Variant
with no effect	R361C

Variants of: B1
Details: with arc1a_human ARPC1A

effect of a mutation on the interaction	Variant
with no effect	R361C

Variants of: B1
Details: with asxl1_human ASXL1, Q8IXJ9

effect of a mutation on the interaction	Variant
with no effect	R361C

Variants of: B1
Details: with bakor_human ATG14, Q6ZNE5

effect of a mutation on the interaction	Variant
with no effect	R361C

Variants of: B1
Details: with atpb_human ATP5F1B

effect of a mutation on the interaction	Variant
with no effect	R361C

Variants of: B1
Details: with atrx_human ATRX

effect of a mutation on the interaction	Variant
with no effect	R361C

Variants of: B1
Details: with aurkb_human AURKB

effect of a mutation on the interaction	Variant
with no effect	R361C

Variants of: B1
Details: with ufo_human AXL

effect of a mutation on the interaction	Variant
with no effect	R361C

Variants of: B1
Details: with za2g_human AZGP1, P25311
Chain of za2g_human AZGP1, P25311 (P25311 whole entry): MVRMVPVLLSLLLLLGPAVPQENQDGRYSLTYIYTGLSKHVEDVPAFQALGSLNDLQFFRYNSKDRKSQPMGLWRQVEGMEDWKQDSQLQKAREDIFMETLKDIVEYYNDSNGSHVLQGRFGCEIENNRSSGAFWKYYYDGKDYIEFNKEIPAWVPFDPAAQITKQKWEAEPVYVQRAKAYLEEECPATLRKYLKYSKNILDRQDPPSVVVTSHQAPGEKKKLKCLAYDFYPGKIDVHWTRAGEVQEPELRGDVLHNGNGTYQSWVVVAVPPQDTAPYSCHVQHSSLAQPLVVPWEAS

effect of a mutation on the interaction	Variant
with no effect	R361C

Variants of: B1
Details: with b2mg_human B2M

effect of a mutation on the interaction	Variant
with no effect	R361C

Variants of: B1
Details: with bap1_human BAP1, Q92560

effect of a mutation on the interaction	Variant
with no effect	R361C

Variants of: B1
Details: with becn1_human BECN1, Q14457

effect of a mutation on the interaction	Variant
with no effect	R361C

Variants of: B1
Details: with birc2_human BIRC2, Q13490

effect of a mutation on the interaction	Variant
with no effect	R361C

Variants of: B1
Details: with braf_human BRAF

effect of a mutation on the interaction	Variant
with no effect	R361C

Variants of: B1
Details: with cbl_human CBL

effect of a mutation on the interaction	Variant
with no effect	R361C

Variants of: B1
Details: with cblb_human CBLB

effect of a mutation on the interaction	Variant
with no effect	R361C

Variants of: B1
Details: with ccnd1_human CCND1, P24385

effect of a mutation on the interaction	Variant
with no effect	R361C

Variants of: B1
Details: with ccnd2_human CCND2, P30279

effect of a mutation on the interaction	Variant
with no effect	R361C

Variants of: B1
Details: with ccnd3_human CCND3, P30281

effect of a mutation on the interaction	Variant
with no effect	R361C

Variants of: B1
Details: with cd44_human CD44, P16070

effect of a mutation on the interaction	Variant
with no effect	R361C

Variants of: B1
Details: with cd79b_human CD79B

effect of a mutation on the interaction	Variant
with no effect	R361C

Variants of: B1
Details: with cdk6_human CDK6, Q00534
Chain of cdk6_human CDK6, Q00534 (Q00534 whole entry): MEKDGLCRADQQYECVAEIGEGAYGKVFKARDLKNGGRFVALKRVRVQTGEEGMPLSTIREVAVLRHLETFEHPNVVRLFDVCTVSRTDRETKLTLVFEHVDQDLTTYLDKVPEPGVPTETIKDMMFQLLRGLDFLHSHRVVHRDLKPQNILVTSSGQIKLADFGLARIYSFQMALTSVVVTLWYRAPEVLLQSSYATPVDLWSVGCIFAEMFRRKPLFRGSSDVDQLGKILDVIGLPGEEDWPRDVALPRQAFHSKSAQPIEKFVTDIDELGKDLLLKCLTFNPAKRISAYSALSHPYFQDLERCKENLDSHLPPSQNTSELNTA

effect of a mutation on the interaction	Variant
with no effect	R361C

Variants of: B1
Details: with cdn2b_human CDKN2B

effect of a mutation on the interaction	Variant
with no effect	R361C

Variants of: B1
Details: with cdn2c_human CDKN2C

effect of a mutation on the interaction	Variant
with no effect	R361C

Variants of: B1
Details: with cebpa_human CEBPA

effect of a mutation on the interaction	Variant
with no effect	R361C

Variants of: B1
Details: with ch3l1_human CHI3L1, P36222

effect of a mutation on the interaction	Variant
with no effect	R361C

Variants of: B1
Details: with ctna1_human CTNNA1, P35221

effect of a mutation on the interaction	Variant
with no effect	R361C

Variants of: B1
Details: with ctnb1_human CTNNB1, P35222

effect of a mutation on the interaction	Variant
with no effect	R361C

Variants of: B1
Details: with cul3_human CUL3, Q13618

effect of a mutation on the interaction	Variant
with no effect	R361C

Variants of: B1
Details: with dicer_human DICER1, Q9UPY3
Chain of dicer_human DICER1, Q9UPY3 (Q9UPY3 whole entry): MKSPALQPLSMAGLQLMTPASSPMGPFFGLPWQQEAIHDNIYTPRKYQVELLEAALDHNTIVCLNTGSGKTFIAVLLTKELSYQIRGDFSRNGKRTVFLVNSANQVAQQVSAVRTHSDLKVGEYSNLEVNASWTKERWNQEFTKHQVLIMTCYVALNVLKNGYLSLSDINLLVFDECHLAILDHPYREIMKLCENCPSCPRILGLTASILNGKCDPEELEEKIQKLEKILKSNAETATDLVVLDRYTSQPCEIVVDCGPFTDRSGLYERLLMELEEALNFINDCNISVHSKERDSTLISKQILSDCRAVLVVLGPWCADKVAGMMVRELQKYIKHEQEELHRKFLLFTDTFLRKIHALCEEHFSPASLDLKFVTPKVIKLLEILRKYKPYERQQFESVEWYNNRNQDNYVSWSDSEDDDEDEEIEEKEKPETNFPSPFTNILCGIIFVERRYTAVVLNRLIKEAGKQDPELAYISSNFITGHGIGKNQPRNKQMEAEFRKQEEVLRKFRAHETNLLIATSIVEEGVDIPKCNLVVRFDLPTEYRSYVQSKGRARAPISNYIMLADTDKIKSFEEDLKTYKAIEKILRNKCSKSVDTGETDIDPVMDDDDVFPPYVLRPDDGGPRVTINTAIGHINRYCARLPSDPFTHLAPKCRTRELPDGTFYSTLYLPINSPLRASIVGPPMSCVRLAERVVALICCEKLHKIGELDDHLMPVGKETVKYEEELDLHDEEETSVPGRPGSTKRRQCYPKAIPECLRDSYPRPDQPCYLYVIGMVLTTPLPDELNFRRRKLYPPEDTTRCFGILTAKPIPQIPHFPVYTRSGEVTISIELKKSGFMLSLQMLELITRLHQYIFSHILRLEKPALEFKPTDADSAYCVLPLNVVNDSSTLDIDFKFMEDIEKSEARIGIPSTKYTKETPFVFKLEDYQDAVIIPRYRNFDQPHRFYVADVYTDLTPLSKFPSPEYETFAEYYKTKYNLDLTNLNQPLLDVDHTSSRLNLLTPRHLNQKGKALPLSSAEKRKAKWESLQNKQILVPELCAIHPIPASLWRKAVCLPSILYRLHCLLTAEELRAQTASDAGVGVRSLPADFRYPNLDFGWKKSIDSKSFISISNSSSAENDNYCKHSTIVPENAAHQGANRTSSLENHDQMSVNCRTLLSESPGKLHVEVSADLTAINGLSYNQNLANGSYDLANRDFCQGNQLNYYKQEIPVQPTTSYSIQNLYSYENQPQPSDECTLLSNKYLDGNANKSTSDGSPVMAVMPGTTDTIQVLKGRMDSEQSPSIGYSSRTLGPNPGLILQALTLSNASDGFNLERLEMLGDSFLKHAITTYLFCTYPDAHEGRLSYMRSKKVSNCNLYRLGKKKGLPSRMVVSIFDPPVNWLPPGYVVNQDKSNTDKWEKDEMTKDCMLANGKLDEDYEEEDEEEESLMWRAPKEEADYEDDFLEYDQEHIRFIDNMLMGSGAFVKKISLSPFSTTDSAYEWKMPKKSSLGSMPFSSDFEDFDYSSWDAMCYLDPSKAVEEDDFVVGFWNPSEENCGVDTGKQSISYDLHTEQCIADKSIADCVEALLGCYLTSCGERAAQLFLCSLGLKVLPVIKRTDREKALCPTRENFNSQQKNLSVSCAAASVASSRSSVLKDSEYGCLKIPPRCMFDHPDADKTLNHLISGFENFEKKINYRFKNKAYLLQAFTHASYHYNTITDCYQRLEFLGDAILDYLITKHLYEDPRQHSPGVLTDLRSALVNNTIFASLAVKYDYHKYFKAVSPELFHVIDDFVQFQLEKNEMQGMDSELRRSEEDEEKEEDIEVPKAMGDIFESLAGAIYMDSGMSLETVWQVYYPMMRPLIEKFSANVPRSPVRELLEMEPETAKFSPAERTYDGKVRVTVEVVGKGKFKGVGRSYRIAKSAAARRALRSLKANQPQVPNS

effect of a mutation on the interaction	Variant
with no effect	R361C

Variants of: B1
Details: with duox2_human DUOX2, Q9NRD8

effect of a mutation on the interaction	Variant
with no effect	R361C

Variants of: B1
Details: with e2f1_human E2F1, Q01094

effect of a mutation on the interaction	Variant
with no effect	R361C

Variants of: B1
Details: with e2f2_human E2F2, Q14209
Chain of e2f2_human E2F2, Q14209 (Q14209 whole entry): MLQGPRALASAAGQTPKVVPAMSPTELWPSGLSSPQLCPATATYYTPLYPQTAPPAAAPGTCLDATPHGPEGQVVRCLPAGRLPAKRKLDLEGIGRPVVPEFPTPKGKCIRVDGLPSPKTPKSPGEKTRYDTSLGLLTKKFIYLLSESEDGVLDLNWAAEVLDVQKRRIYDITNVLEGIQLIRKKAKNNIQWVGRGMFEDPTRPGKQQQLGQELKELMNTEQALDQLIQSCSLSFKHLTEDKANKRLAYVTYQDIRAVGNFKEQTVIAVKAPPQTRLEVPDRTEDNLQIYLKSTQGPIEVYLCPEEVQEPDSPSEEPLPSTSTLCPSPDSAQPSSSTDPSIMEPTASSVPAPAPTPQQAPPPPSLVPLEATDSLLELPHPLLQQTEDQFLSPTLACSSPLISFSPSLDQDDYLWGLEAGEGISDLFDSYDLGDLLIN

effect of a mutation on the interaction	Variant
with no effect	R361C

Variants of: B1
Details: with e2f4_human E2F4, Q16254

effect of a mutation on the interaction	Variant
with no effect	R361C

Variants of: B1
Details: with e2f5_human E2F5, Q15329

effect of a mutation on the interaction	Variant
with no effect	R361C

Variants of: B1
Details: with if4e_human EIF4E

effect of a mutation on the interaction	Variant
with no effect	R361C

Variants of: B1
Details: with epha7_human EPHA7, Q15375

effect of a mutation on the interaction	Variant
with no effect	R361C

Variants of: B1
Details: with ephb1_human EPHB1, P54762

effect of a mutation on the interaction	Variant
with no effect	R361C

Variants of: B1
Details: with erbb4_human ERBB4, Q15303

effect of a mutation on the interaction	Variant
with no effect	R361C

Variants of: B1
Details: with esr1_human ESR1, P03372
Chain of esr1_human ESR1, P03372 (P03372 whole entry): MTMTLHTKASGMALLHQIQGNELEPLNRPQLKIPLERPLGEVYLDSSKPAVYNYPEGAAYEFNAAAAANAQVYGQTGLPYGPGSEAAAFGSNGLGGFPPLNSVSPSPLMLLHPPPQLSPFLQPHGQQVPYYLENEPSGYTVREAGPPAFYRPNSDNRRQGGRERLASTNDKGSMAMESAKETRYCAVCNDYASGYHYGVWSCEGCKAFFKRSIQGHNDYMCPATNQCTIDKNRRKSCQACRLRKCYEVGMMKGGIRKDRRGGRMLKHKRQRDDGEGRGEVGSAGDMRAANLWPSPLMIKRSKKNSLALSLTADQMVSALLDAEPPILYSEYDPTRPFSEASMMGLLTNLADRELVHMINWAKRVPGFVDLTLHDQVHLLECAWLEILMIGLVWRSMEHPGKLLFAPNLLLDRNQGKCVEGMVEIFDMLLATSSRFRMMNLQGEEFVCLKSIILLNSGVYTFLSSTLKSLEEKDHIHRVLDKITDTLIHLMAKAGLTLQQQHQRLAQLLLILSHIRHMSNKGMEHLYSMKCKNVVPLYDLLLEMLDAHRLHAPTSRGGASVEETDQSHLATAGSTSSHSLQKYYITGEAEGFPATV

effect of a mutation on the interaction	Variant
with no effect	R361C

Variants of: B1
Details: with etv1_human ETV1, P50549

effect of a mutation on the interaction	Variant
with no effect	R361C

Variants of: B1
Details: with fadd_human FADD

effect of a mutation on the interaction	Variant
with no effect	R361C

Variants of: B1
Details: with facd2_human FANCD2, Q9BXW9

effect of a mutation on the interaction	Variant
with no effect	R361C

Variants of: B1
Details: with fgf19_human FGF19, O95750
Chain of fgf19_human FGF19, O95750 (O95750 whole entry): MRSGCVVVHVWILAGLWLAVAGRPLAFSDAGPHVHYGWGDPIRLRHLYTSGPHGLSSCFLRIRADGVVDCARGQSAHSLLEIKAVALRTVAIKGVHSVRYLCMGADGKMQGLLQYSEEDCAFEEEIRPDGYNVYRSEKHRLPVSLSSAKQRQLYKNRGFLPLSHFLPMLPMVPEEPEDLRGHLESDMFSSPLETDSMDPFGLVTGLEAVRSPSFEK

effect of a mutation on the interaction	Variant
with no effect	R361C

Variants of: B1
Details: with fgfr3_human FGFR3, P22607
Chain of fgfr3_human FGFR3, P22607 (P22607 whole entry, looked up): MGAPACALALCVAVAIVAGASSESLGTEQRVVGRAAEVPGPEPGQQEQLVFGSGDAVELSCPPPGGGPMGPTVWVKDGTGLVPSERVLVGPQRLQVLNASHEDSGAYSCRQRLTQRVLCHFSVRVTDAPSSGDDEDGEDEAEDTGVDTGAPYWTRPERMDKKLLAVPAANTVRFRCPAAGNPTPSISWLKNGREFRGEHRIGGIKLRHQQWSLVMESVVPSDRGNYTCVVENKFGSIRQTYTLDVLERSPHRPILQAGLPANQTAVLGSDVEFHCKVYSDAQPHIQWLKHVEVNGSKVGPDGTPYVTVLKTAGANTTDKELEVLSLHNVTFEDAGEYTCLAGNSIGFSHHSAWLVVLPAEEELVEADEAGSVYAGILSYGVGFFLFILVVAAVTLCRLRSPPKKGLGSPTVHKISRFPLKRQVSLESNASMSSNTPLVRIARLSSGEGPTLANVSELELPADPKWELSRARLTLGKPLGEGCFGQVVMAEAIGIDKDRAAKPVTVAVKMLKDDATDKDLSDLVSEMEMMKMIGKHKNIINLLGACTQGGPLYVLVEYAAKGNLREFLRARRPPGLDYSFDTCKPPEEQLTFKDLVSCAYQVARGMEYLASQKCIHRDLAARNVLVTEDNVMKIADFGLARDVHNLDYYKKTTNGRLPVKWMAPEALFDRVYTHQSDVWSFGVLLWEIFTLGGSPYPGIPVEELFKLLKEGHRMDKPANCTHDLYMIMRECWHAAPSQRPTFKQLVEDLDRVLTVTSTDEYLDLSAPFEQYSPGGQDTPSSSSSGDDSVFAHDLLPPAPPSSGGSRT

effect of a mutation on the interaction	Variant
with no effect	R361C

Variants of: B1
Details: with fgfr4_human FGFR4, P22455

effect of a mutation on the interaction	Variant
with no effect	R361C

Variants of: B1
Details: with foxo1_human FOXO1, Q12778

effect of a mutation on the interaction	Variant
with no effect	R361C

Variants of: B1
Details: with foxo3_human FOXO3, O43524

effect of a mutation on the interaction	Variant
with no effect	R361C

Variants of: B1
Details: with gbra6_human GABRA6, Q16445

effect of a mutation on the interaction	Variant
with no effect	R361C

Variants of: B1
Details: with gata2_human GATA2, P23769

effect of a mutation on the interaction	Variant
with no effect	R361C

Variants of: B1
Details: with gata3_human GATA3, P23771
Chain of gata3_human GATA3, P23771 (P23771 whole entry): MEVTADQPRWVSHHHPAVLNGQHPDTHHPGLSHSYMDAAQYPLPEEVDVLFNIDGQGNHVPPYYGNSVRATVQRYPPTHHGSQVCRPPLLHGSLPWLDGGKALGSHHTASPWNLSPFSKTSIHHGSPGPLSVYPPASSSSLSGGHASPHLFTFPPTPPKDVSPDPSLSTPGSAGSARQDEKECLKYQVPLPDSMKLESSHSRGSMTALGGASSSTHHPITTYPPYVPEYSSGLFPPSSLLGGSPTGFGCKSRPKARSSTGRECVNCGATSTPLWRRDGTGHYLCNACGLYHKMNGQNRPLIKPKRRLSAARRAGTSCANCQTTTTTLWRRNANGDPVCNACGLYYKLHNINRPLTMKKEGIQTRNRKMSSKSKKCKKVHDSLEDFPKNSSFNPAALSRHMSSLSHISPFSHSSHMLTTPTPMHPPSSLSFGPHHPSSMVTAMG

effect of a mutation on the interaction	Variant
with no effect	R361C

Variants of: B1
Details: with gna11_human GNA11, P29992

effect of a mutation on the interaction	Variant
with no effect	R361C

Variants of: B1
Details: with gnaq_human GNAQ

effect of a mutation on the interaction	Variant
with no effect	R361C
